# Like-named read-outs stand apart in the source and are kept apart here.
# Tests used:
# [1] = tested on: adult patients with relapsed and refractory multiple myeloma; assay: Monotherapy safety, three open-label clinical trials; format: in vivo, human
# Excerpt: Serious adverse reactions were reported in 51 (33%) patients.
# [2] = tested on: patients with multiple myeloma; assay: Immunogenicity, anti-daratumumab antibodies; format: in vivo, human
# Excerpt: As with all therapeutic proteins, there is the potential for immunogenicity. The detection of antibody formation is highly dependent on the sensitivity and specificity of the assay. Additionally, the observed incidence of antibody (including neutralizing antibody) positivity in an assay may be influenced by several factors including assay methodology, sample handling, timing of sample collection, concomitant medications, and underlying disease. For these reasons, comparison of the incidence of antibodies to daratumumab in the studies described below with the incidence of antibodies in other studies or to other products may be misleading. […] One patient administered DARZALEX as combination therapy, developed transient neutralizing antibodies against daratumumab. However, this assay has limitations in detecting anti-daratumumab antibodies in the presence of high concentrations of daratumumab; therefore, the incidence of antibody development might not have been reliably determined.
# [3] = Clinical pharmacokinetics; format: in vivo, human
# [4] = Solution pH and storage of diluted solution; format: physicochemical
# Excerpt: Prepare the solution for infusion using aseptic technique as follows: • Calculate the dose (mg), total volume (mL) of DARZALEX solution required and the number of DARZALEX vials needed based on patient actual body weight. • Check that the DARZALEX solution is colorless to pale yellow. […] Infusion bags/containers must be made of either polyvinylchloride (PVC), polypropylene (PP), polyethylene (PE) or polyolefin blend (PP+PE). Dilute under appropriate aseptic conditions. Discard any unused portion left in the vial. • Gently invert the bag/container to mix the solution. […] The diluted solution may develop very small, translucent to white proteinaceous particles, as daratumumab is a protein. […] (59° F.−77° F.) and in room light. Diluted solution may be kept at room temperature for a maximum of 15 hours (including infusion time). • If not used immediately, the diluted solution can be stored prior to administration for up to 24 hours at refrigerated conditions 2° C.−8° C. (36° F.−46° F.) and protected from light.
# DARZALEX is supplied as a colorless to pale yellow preservative-free solution for intravenous infusion in single-dose vials. The pH is 5.5.
# [5] = target: T1, CD38 on red blood cells (RBCs) (Homo sapiens, UniProt P28907); assay: Indirect Antiglobulin Test (Indirect Coombs test) interference
# T1 construct: endogenous in cells; host or cells: red blood cells (reagent RBCs / donor RBCs in blood-bank testing)
# Excerpt: Daratumumab binds to CD38 on red blood cells (RBCs) and results in a positive Indirect Antiglobulin Test (Indirect Coombs test). Daratumumab-mediated positive indirect antiglobulin test may persist for up to 6 months after the last daratumumab infusion. Daratumumab bound to RBCs masks detection of antibodies to minor antigens in the patient's serum [see References (15)]. The determination of a patient's ABO and Rh blood type are not impacted [see Drug Interactions (7.1)].
# Daratumumab binds to CD38 on RBCs and interferes with compatibility testing, including antibody screening and cross matching. Daratumumab interference mitigation methods include treating reagent RBCs with dithiothreitol (DTT) to disrupt daratumumab binding [see References (15)] or genotyping. Since the Kell blood group system is also sensitive to DTT treatment, K-negative units should be supplied after ruling out or identifying alloantibodies using DTT-treated RBCs.
# NK cells = assay: Pharmacodynamics, NK cells; format: in vivo, human; conditions: peripheral whole blood and bone marrow
# Excerpt: NK cells express CD38 and are susceptible to daratumumab mediated cell lysis.
# [6] = Cardiac electrophysiology; conditions: non-clinical or clinical data
# [7] = tested on: patients with multiple myeloma
# [8] = tested on: patients with newly diagnosed multiple myeloma eligible for ASCT; assay: CASSIOPEIA, adverse reactions and laboratory abnormalities
substance,measurement,setting,value
"DARZALEX: immunoglobulin G1 kappa (IgG1κ) human monoclonal antibody against CD38 antigen; HC SEQ ID NO: 9, LC SEQ ID NO: 10",Pyrexia,[1]; Grade 3,1%
same,"Thrombocytopenia, laboratory abnormality",[1]; Grade 3,10%
same,Upper respiratory tract infection,[1]; Grade 3,1%
same,Vomiting,[1]; Grade 3,0%
same,"Anemia, laboratory abnormality",[1]; Grade 4,0%
same,Arthralgia,[1]; Grade 4,0%
same,Back pain,[1]; Grade 4,0%
same,Chills,[1]; Grade 4,0%
same,Constipation,[1]; Grade 4,0%
same,Cough,[1]; Grade 4,0%
same,Decreased appetite,[1]; Grade 4,0%
same,Diarrhea,[1]; Grade 4,0%
same,Dyspnea,[1]; Grade 4,0%
same,Fatigue,[1]; Grade 4,0%
same,Headache,[1]; Grade 4,0%
same,Hypertension,[1]; Grade 4,0%
same,Infusion reaction,[1]; Grade 4,0%
same,"Lymphopenia, laboratory abnormality",[1]; Grade 4,10%
same,Musculoskeletal chest pain,[1]; Grade 4,0%
same,Nasal congestion,[1]; Grade 4,0%
same,Nasopharyngitis,[1]; Grade 4,0%
same,Nausea,[1]; Grade 4,0%
same,"Neutropenia, laboratory abnormality",[1]; Grade 4,3%
same,Pain in extremity,[1]; Grade 4,0%
same,Pneumonia,[1]; Grade 4,0%
same,Pyrexia,[1]; Grade 4,0%
same,"Thrombocytopenia, laboratory abnormality",[1]; Grade 4,8%
same,Upper respiratory tract infection,[1]; Grade 4,0%
same,Vomiting,[1]; Grade 4,0%
same,serious adverse reactions,"[1]; monotherapy 16 mg/kg, 156 patients",33%
same,patients tested positive for anti-daratumumab antibodies,[2]; 111 evaluable monotherapy patients,none
same,patients tested positive for anti-daratumumab antibodies,"[2]; of the 1,050 evaluable combination therapy patients",2
same,"area under the concentration-time curve (AUC), dose dependence",[3]; 1 to 24 mg/kg monotherapy or 1 to 16 mg/kg combination therapy,increases more than proportionally
same,"drug-drug interactions between daratumumab and lenalidomide, pomalidomide, bortezomib and dexamethasone",[3]; clinical pharmacokinetic assessments,no clinically relevant drug-drug interactions
same,terminal half-life compared with monotherapy,[3]; combination therapy,similar
same,volume of distribution,[3]; combination therapy,4.4 ± 1.5 L
same,"trough serum concentration (Cmin), mean±SD","[3]; end of weekly dosing, monotherapy",573 ± 332 µg/mL
same,central volume of distribution and clearance with increasing body weight,"[3]; human, in vivo",increased
same,clearance with increasing dose and with multiple dosing,"[3]; human, in vivo",decreased
same,"linear clearance, mean±SD",[3]; monotherapy,171.4 ± 95.3 mL/day
same,"terminal half-life associated with linear clearance, mean±SD",[3]; monotherapy,18 ± 9 days
same,volume of distribution,[3]; monotherapy,4.7 ± 1.3 L
same,"differences in pharmacokinetics based on sex, age, mild and moderate hepatic impairment, or renal impairment",[3]; monotherapy or combination therapy,No clinically significant differences
same,time to steady state,"[3]; monotherapy, into the every 4-week dosing period (by the 21st infusion)",approximately 5 months
same,time diluted solution can be stored prior to administration,"[4]; refrigerated 2° C.−8° C., protected from light",up to 24 hours
same,time diluted solution may be kept,"[4]; room temperature, including infusion time",≤ 15 h
same,pH,[4]; solution for intravenous infusion,5.5
same,Indirect Antiglobulin Test (Indirect Coombs test) result,[5],positive
same,persistence of positive indirect antiglobulin test after the last infusion,[5],up to 6 months
same,absolute counts and percentages of total NK cells and activated NK cells,NK cells,Decreases
same,potential to delay ventricular repolarization,[6],no evidence
same,incidence of any grade infusion reactions,[7]; Week 2 infusion,2%
same,Grade 3/4 infusion reaction,[7]; Week 2 or subsequent infusions,Less than 1%
same,incidence of any grade infusion reactions,"[7]; cumulatively, subsequent infusions",6%
same,incidence of any grade infusion reactions,"[7]; first (16 mg/kg, Week 1) infusion",37%
same,incidence of infusion modification due to reactions,"[7]; human, in vivo",36%
same,Hepatitis B virus reactivation,[7]; including fatal cases,less than 1%
same,time of infusion reactions after completing DARZALEX,"[7]; nearly all reactions, during infusion or within",≤ 4 h
same,time of infusion reactions after infusion,[7]; prior to the introduction of post-infusion medication,up to 48 hours
same,patients who experienced an infusion reaction,[7]; share of all patients in clinical trials,approximately half
same,IRRs Grade 3 or 4,[8]; at re-initiation following ASCT,< 1%
same,incidence of IRRs,"[8]; first infusion following ASCT, upon re-initiation",11%
